Measurements: patent US20240287172A1 (SCIRHOM, published 2024)

T1: hiR2-FL-G587N-T7 (human, UniProt Q6PJF5 1-856)
T1 sequence: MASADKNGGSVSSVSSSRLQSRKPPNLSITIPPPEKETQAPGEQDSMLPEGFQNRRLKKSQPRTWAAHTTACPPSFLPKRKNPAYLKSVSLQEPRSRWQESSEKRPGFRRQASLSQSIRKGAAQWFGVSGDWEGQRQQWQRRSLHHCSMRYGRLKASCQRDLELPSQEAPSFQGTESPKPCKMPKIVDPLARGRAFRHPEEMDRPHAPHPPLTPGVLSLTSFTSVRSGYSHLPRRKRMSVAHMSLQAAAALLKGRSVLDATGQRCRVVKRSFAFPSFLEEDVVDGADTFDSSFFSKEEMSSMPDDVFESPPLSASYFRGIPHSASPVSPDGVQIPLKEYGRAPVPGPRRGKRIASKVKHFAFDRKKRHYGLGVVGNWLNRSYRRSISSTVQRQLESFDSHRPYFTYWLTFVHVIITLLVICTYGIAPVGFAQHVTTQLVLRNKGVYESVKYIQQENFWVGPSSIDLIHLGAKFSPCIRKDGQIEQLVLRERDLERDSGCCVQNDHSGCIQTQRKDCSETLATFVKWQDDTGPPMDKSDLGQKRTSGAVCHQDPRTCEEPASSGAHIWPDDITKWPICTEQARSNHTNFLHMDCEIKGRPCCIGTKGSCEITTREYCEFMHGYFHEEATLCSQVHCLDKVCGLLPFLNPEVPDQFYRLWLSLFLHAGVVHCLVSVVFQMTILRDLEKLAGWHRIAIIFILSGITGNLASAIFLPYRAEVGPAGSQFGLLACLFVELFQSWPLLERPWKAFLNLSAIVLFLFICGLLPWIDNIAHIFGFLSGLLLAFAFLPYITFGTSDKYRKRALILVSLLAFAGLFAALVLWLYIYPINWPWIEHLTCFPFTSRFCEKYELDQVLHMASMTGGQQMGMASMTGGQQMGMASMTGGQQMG


Biological target: T1, hiR2-FL-G587N-T7
Test: FACS, MEF-DKO cells, 3 µg/ml
From the text: In brief, immortalized MEF-DKO hiR2-FL-G563D-T7, MEF-DKO hiR2-FL-A564P-T7, MEF-DKO hiR2-FL-1566E-T7, MEF-DKO hiR2-FL-D569E-T7, MEF-DKO hiR2-FL-E579K-T7, MEF-DKO hiR2-FL-Q580N-T7, MEF-DKO hiR2-FL-A581S-T7, MEF-DKO hiR2-FL-R582A-T7, MEF-DKO hiR2-FL-S583G-T7, MEF-DKO hiR2-FL-G587N-T7, MEF-DKO hiR2-FL-F588H-T7, MEF-DKO hiR2-FL-L589P-T7, MEF-DKO hiR2-FL-E594V-T7, MEF-DKO hiR2-FL-K596T-T7, MEF-DKO hiR2-FL-S607R-T7, MEF-DKO hiR2-FL-T612S-T7, MEF-DKO hiR2-FL-E617D-T7, MEF-DKO hiR2-FL-H620R-T7, MEF-DKO hiR2-FL-L636M-T7, MEF-DKO hiR2-FL-K638D-T7, MEF-DKO hiR2-FL-1771F-T7, MEF-DKO hiR2-FL-1825V-T7, MEF-DKO hiR2-FL-1828V-T7, MEF-DKO hiR2-FL-N829R-T7, MEF-DKO hiR2-FL-W830C-T7, MEF-DKO hiR2-FL-P831E-T7, MEF-DKO hiR2-FL-I833C-T7, MEF-DKO hiR2-FL-H835F-T7, MEF-DKO hiR2-FL-F8391-T7, MEF-DKO hiR2-FL-S843D-T7, MEF-DKO hiR2-FL-Q853A-T7, MEF-DKO hiR2-FL-V854Q-T7 and MEF-DKO hiR2-FL-R844K-T7 cells were harvested with 10 mM EDTA in PBS, washed and resuspended in FACS buffer (PBS, 3% FBS, 0.05% sodium azide), and seeded in Nunc U-bottom 96-well plates (Thermo Fisher Scientific, USA) at approximately 1×10⁵ cells per well. To pellet cells and remove supernatants, the plates were centrifuged at 1,500 rpm and 4° C. for 3 minutes. For primary staining, cells were resuspended in 100 μl per well of either FACS buffer alone (controls) or the purified antibodies 3, 5, 16, 22, 34, 42, 43, 44, 48, and 50 of the invention at 3 μg/ml in FACS buffer and incubated on ice for 1 hour. Afterwards, plates were centrifuged at 1,500 rpm and 4° C. for 3 minutes and washed twice with 200 μl per well of FACS buffer. For secondary staining, cells were spun down and resuspended in 100 μl per well of PE-conjugated goat anti-mouse IgG F(ab′)2 detection fragment (Dianova, Germany) diluted 1:100 in FACS buffer. Protected from light, the cell suspensions were incubated on ice for 1 hour. Plates were then centrifuged at 1,500 rpm and 4° C. for 3 minutes and washed three times with 200 μl per well of FACS buffer. Finally, cells were resuspended in 150 μl per well of FACS buffer and analyzed using a BD Accuri™ C6 Plus flow cytometer (Becton Dickinson, Germany).

Row | Binder | loss of binding vs wild type
1 | antibody 43 (antibody, V domains shown, mouse IgG, kappa light chain; also called clone #43; purified antibody 43) VH: QVALKESGPGILQPSQTLSLTCSFSGFSLSTFGMGVGWIRQSSGKGLEWLANIWWDDDKYYNPALKSRLTISKDASKNQAFLKIANVDTADTATYYCARIGNYGSNYWYFDVWGTGTTVTVSS VL: QIVLTQSPAIMSASPGERVTMTCSANSRISYMYWYQQKPGSSPRLLIYDTSNLASGVPVRFSGSGSGTSYSLTISRMEAEDAATYNCQQWSSYPLTFGAGTKLELK | ≥ 30%
2 | antibody 48 (antibody, V domains shown, mouse IgG, kappa light chain; also called clone #48; purified antibody 48) VH: QVQLQQSGTELVRPGTSVKVSCKASGYAFTNYLIEWVKQRPGQGLEWIGVINPGSGFTKYNEKFKGKATLTADKSSSTVYMHLSSLTSEDSAVYFCARGLYRAMDYWGQGTSVTVSS VL: DIQMTQSPASQSASLGESVTITCLASQTIATWLAWYQQKPGKSPQLLIYGATTLADGVPSRFSGGGSGTKFSFKISSLQAEDFVSYYCQQLYSTPYTFGGGTKLEIK | ≥ 60%
3 | antibody 50 (antibody, V domains shown, mouse IgG, kappa light chain; also called clone #50; purified antibody 50) VH: QVQLQQSGAELVRPGASVKVSCKASGYAFSNYLIEWVKQRPGQGLEWIGVINPGSGFTKYNEKFKGKATLTADKSSSTAYMQLSSLTSEDSAVYFCARGLYRAMDYWGQGTSVTVSS VL: DIQMTQSPASQSASLGESVTITCLASQTIGTWLAWYQQKPGKSPQLLIYAAASLADGVPSRFSGGGSGTKFSFKISSLQAEDFVNYYCQQIYSTPYTFGGGTKLEIK | ≥ 60%
